# IntAct's records for PubMed 31515488
# B1: Probable RNA-binding protein 46 (Homo sapiens), Q8TBY0 (parent)
# chain: MNEENIDGTNGCSKVRTGIQNEAALLALMEKTGYNMVQENGQRKFGGPPPGWEGPPPPRGCEVFVGKIPRDMYEDELVPVFERAGKIYEFRLMMEFSGENRGYAFVMYTTKEEAQLAIRILNNYEIRPGKFIGVCVSLDNCRLFIGAIPKEKKKEEILDEMKKVTEGVVDVIVYPSATDKTKNRGFAFVEYESHRAAAMARRKLIPGTFQLWGHTIQVDWADPEKEVDEETMQRVKVLYVRNLMISTTEETIKAEFNKFKPGAVERVKKLRDYAFVHFFNREDAVAAMSVMNGKCIDGASIEVTLAKPVNKENTWRQHLNGQISPNSENLIVFANKEESHPKTLGKLPTLPARLNGQHSPSPPEVERCTYPFYPGTKLTPISMYSLKSNHFNSAVMHLDYYCNKNNWAPPEYYLYSTTSQDGKVLLVYKIVIPAIANGSQSYFMPDKLCTTLEDAKELAAQFTLLHLDYNFHRSSINSLSPVSATLSSGTPSVLPYTSRPYSYPGYPLSPTISLANGSHVGQRLCISNQASFF
# B2: Keratin, type II cytoskeletal 2 epidermal (Homo sapiens), P35908 (parent)
# chain: MSCQISCKSRGRGGGGGGFRGFSSGSAVVSGGSRRSTSSFSCLSRHGGGGGGFGGGGFGSRSLVGLGGTKSISISVAGGGGGFGAAGGFGGRGGGFGGGSSFGGGSGFSGGGFGGGGFGGGRFGGFGGPGGVGGLGGPGGFGPGGYPGGIHEVSVNQSLLQPLNVKVDPEIQNVKAQEREQIKTLNNKFASFIDKVRFLEQQNQVLQTKWELLQQMNVGTRPINLEPIFQGYIDSLKRYLDGLTAERTSQNSELNNMQDLVEDYKKKYEDEINKRTAAENDFVTLKKDVDNAYMIKVELQSKVDLLNQEIEFLKVLYDAEISQIHQSVTDTNVILSMDNSRNLDLDSIIAEVKAQYEEIAQRSKEEAEALYHSKYEELQVTVGRHGDSLKEIKIEISELNRVIQRLQGEIAHVKKQCKNVQDAIADAEQRGEHALKDARNKLNDLEEALQQAKEDLARLLRDYQELMNVKLALDVEIATYRKLLEGEECRMSGDLSSNVTVSVTSSTISSNVASKAAFGGSGGRGSSSGGGYSSGSSSYGSGGRQSGSRGGSGGGGSISGGGYGSGGGSGGRYGSGGGSKGGSISGGGYGSGGGKHSSGGGSRGGSSSGGGYGSGGGGSSSVKGSSGEAFGSSVTFSFR
# B3: Serine/threonine-protein kinase PAK 5 (Homo sapiens), Q9P286 (parent)
# chain: MFGKKKKKIEISGPSNFEHRVHTGFDPQEQKFTGLPQQWHSLLADTANRPKPMVDPSCITPIQLAPMKTIVRGNKPCKETSINGLLEDFDNISVTRSNSLRKESPPTPDQGASSHGPGHAEENGFITFSQYSSESDTTADYTTEKYREKSLYGDDLDPYYRGSHAAKQNGHVMKMKHGEAYYSEVKPLKSDFARFSADYHSHLDSLSKPSEYSDLKWEYQRASSSSPLDYSFQFTPSRTAGTSGCSKESLAYSESEWGPSLDDYDRRPKSSYLNQTSPQPTMRQRSRSGSGLQEPMMPFGASAFKTHPQGHSYNSYTYPRLSEPTMCIPKVDYDRAQMVLSPPLSGSDTYPRGPAKLPQSQSKSGYSSSSHQYPSGYHKATLYHHPSLQSSSQYISTASYLSSLSLSSSTYPPPSWGSSSDQQPSRVSHEQFRAALQLVVSPGDPREYLANFIKIGEGSTGIVCIATEKHTGKQVAVKKMDLRKQQRRELLFNEVVIMRDYHHDNVVDMYSSYLVGDELWVVMEFLEGGALTDIVTHTRMNEEQIATVCLSVLRALSYLHNQGVIHRDIKSDSILLTSDGRIKLSDFGFCAQVSKEVPKRKSLVGTPYWMAPEVISRLPYGTEVDIWSLGIMVIEMIDGEPPYFNEPPLQAMRRIRDSLPPRVKDLHKVSSVLRGFLDLMLVREPSQRATAQELLGHPFLKLAGPPSCIVPLMRQYRHH
# partner: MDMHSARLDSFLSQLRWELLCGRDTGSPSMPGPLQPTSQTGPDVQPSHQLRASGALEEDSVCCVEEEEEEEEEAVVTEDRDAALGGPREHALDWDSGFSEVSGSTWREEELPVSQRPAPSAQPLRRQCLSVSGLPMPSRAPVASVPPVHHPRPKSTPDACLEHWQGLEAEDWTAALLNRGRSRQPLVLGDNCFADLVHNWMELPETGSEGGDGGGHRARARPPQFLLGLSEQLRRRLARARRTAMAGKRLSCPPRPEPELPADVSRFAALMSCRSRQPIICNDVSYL
# B4: Protein unc-45 homolog A (Homo sapiens), Q9H3U1 (parent)
# chain: MTVSGPGTPEPRPATPGASSVEQLRKEGNELFKCGDYGGALAAYTQALGLDATPQDQAVLHRNRAACHLKLEDYDKAETEASKAIEKDGGDVKALYRRSQALEKLGRLDQAVLDLQRCVSLEPKNKVFQEALRNIGGQIQEKVRYMSSTDAKVEQMFQILLDPEEKGTEKKQKASQNLVVLAREDAGAEKIFRSNGVQLLQRLLDMGETDLMLAALRTLVGICSEHQSRTVATLSILGTRRVVSILGVESQAVSLAACHLLQVMFDALKEGVKKGFRGKEGAIIVDPARELKVLISNLLDLLTEVGVSGQGRDNALTLLIKAVPRKSLKDPNNSLTLWVIDQGLKKILEVGGSLQDPPGELAVTANSRMSASILLSKLFDDLKCDAERENFHRLCENYIKSWFEGQGLAGKLRAIQTVSCLLQGPCDAGNRALELSGVMESVIALCASEQEEEQLVAVEALIHAAGKAKRASFITANGVSLLKDLYKCSEKDSIRIRALVGLCKLGSAGGTDFSMKQFAEGSTLKLAKQCRKWLCNDQIDAGTRRWAVEGLAYLTFDADVKEEFVEDAAALKALFQLSRLEERSVLFAVASALVNCTNSYDYEEPDPKMVELAKYAKQHVPEQHPKDKPSFVRARVKKLLAAGVVSAMVCMVKTESPVLTSSCRELLSRVFLALVEEVEDRGTVVAQGGGRALIPLALEGTDVGQTKAAQALAKLTITSNPEMTFPGERIYEVVRPLVSLLHLNCSGLQNFEALMALTNLAGISERLRQKILKEKAVPMIEGYMFEEHEMIRRAATECMCNLAMSKEVQDLFEAQGNDRLKLLVLYSGEDDELLQRAAAGGLAMLTSMRPTLCSRIPQVTTHWLEILQALLLSSNQELQHRGAVVVLNMVEASREIASTLMESEMMEILSVLAKGDHSPVTRAAAACLDKAVEYGLIQPNQDGE
# partner: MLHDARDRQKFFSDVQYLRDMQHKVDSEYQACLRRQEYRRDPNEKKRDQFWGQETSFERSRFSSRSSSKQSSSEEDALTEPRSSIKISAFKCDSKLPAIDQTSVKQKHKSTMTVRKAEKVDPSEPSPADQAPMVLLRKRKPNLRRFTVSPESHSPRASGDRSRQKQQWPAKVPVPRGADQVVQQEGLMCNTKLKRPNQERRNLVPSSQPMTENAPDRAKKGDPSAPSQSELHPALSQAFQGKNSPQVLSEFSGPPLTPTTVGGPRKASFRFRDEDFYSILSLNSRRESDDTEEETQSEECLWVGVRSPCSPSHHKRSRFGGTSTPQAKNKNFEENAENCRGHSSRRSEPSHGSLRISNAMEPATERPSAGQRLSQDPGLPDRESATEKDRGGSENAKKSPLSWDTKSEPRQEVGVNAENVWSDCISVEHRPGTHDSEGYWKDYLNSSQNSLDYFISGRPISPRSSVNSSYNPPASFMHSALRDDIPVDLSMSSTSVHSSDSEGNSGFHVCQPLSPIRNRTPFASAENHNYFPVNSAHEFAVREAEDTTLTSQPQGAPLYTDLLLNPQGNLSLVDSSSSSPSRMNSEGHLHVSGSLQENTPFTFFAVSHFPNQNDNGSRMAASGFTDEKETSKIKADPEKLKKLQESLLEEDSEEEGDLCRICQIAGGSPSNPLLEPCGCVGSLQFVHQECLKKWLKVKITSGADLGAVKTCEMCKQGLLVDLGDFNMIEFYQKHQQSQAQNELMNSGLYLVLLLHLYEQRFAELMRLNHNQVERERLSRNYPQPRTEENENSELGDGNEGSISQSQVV
# B5: Notch homolog 2 N-terminal-like protein A (Homo sapiens), Q7Z3S9 (parent)
# chain: MCVTYHNGTGYCKCPEGFLGEYCQHRDPCEKNRCQNGGTCVAQAMLGKATCRCASGFTGEDCQYSTSHPCFVSRPCLNGGTCHMLSRDTYECTCQVGFTGKECQWTDACLSHPCANGSTCTTVANQFSCKCLTGFTGQKCETDVNECDIPGHCQHGGTCLNLPGSYQCQCLQGFTGQYCDSLYVPCAPSPCVNGGTCRQTGDFTFECNCLPETVRRGTELWERDREVWNGKEHDEN
# partner: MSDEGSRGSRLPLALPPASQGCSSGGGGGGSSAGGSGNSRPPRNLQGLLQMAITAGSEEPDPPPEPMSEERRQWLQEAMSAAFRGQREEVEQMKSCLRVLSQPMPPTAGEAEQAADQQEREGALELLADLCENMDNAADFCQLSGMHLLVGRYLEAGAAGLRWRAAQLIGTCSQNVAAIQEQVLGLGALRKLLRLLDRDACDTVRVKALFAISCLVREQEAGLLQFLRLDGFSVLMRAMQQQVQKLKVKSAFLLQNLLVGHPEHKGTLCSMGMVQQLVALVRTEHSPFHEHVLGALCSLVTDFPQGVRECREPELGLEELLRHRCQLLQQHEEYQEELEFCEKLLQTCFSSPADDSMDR
# B6: Elongin-A2 (Homo sapiens), Q8IYF1 (parent)
# chain: MAAGSTTLHAVEKLQVRLATKTEPKKLEKYLQKLSALPMTADILAETGIRKTVKRLRKHQHVGDFARDLAARWKKLVLVDRNTRPGPQDPEESASRQRFGEALQDQEKAWGFPENATAPRSPSHSPEHRRTARRTPPGQQRPHPRSHSREPRAERKCPRIAPADSGRYRASPTRTAPLRMPEGPEPAAPGKQPGRGHTHAAQGGPLLCPGCQGQPQGKAVVSHSKGHKSSRQEKRPLCAQGDWHSPTLIREKSCGACLREETPRMPSWASARDRQPSDFKTDKEGGQAGSGQRVPALEEAPDSHQKRPQHSHSNKKRPSLDGRDPGNGTHGLSPEEKEQLSNDRETQEGKPPTAHLDRTSVSSLSEVEEVDMAEEFEQPTLSCEKYLTYDQLRKQKKKTGKSATTALGDKQRKANESKGTRESWDSAKKLPPVQESQSERLQAAGADSAGPKTVPSHVFSELWDLSEAWMQANYDPLSDSDSMTSQAKPEALSSPKFREEAAFPGRRVNAKMPVYSGSRPACQLQVPTLRQQCAQVLRNNPDALSDVGEVPYWVLEPVLEGWRPDQLYRRKKDNHALVRETDELRRNHCFQDFKEEKPQENKTWREQYLRLPDAPEQRLRVMTTNIRSARGNNPNGREAKMICFKSVAKTPYDTSRRQEKSAGDADPENGEIKPASKPAGSSHTPSSQSSSGGGRDSSSSILRWLPEKRANPCLSSSNEHAAPAAKTRKQAAKKVAPLMAKAIRDYKRRFSRR
# partner: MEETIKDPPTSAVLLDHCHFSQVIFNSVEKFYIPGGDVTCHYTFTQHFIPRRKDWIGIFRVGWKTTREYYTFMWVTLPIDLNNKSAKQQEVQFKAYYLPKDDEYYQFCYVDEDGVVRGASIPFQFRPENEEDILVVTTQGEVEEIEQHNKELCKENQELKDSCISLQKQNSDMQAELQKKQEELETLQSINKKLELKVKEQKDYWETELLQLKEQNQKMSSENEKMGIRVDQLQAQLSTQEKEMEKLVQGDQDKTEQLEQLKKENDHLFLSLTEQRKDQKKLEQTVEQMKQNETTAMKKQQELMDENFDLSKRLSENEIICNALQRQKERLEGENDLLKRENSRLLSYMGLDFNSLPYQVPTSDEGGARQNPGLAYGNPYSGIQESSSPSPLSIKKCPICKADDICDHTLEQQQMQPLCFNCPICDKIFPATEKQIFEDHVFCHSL
# Variants of: B1
# Conditions: with rbpms_human RBPMS
row,effect of a mutation on the interaction,Variant
1,with no effect,I126M

# Variants of: B2
# Conditions: with KRT19, P08727
# KRT19, P08727, sequence (P08727 whole entry): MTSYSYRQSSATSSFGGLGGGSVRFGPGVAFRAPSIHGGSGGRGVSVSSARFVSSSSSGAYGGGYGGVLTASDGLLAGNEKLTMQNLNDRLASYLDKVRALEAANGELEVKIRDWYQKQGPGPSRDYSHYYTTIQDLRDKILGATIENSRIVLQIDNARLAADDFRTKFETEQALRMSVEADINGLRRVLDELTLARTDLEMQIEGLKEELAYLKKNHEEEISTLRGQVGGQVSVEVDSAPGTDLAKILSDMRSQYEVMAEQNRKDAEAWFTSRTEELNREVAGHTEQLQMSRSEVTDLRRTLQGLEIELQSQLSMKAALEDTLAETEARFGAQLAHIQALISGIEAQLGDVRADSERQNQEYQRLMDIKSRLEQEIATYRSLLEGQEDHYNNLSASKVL
row,effect of a mutation on the interaction,Variant
1,with no effect,A517G

# Variants of: B3
# Conditions: with inka1_human INKA1, Q96EL1
row,effect of a mutation on the interaction,Variant
1,with no effect,S511N

# Variants of: B4
# Conditions: with marha_human MARCHF10, Q8NA82
row,effect of a mutation on the interaction,Variant
1,with no effect,T796M

# Variants of: B5
# Conditions: with hpbp1_human HSPBP1, Q9NZL4
row,effect of a mutation on the interaction,Variant
1,with no effect,A115T
2,with no effect,R74Q

# Variants of: B6
# Conditions: with caco2_human CALCOCO2, Q13137
row,Variant,effect of a mutation on the interaction
1,C254F,with no effect
2,R498Q,with no effect
3,D302H,with no effect

# Next, values leading:
row,effect of a mutation on the interaction,Variant
1,disrupting interaction strength,G505R
2,with no effect,R179P
3,with no effect,T6S
